For data set [1], the target named is Cy3-labeled Alzheimer's amyloid-beta fibrils.
The target in data set [2] is mannose 6-phosphate receptor (MPR) on cultured rat cerebellar granule neurons (rat) (UniProt P70580). The data set is described as follows: cell-based or functional assay.
UniProt P70580, sequence (P70580 whole entry): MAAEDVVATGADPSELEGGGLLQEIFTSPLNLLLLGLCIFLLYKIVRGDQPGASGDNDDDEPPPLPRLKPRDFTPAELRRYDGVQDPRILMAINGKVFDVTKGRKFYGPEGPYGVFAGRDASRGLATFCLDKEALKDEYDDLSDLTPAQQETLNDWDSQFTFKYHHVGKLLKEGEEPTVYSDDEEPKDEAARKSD

B1: recombinant human CLN2 protein produced in CHO cells (proCLN2, 65 KDa precursor) (protein)
chain: SYSPEPDQRRTLPPGWVSLGRADPEEELSLTFALRQQNVERLSELVQAVSDPSSPQYGKYLTLENVADLVRPSPLTLHTVQKWLLAAGAQKCHSVITQDFLTCWLSIRQAELLLPGAEFHHYVGGPTETHVVRSPHPYQLPQALAPHVDFVGGLHRFPPTSSLRQRPEPQVTGTVGLHLGVTPSVIRKRYNLTSQDVGSGTSNNSQACAQFLEQYFHDSDLAQFMRLFGGNFAHQASVARVVGQQGRGRAGIEASLDVQYLMSAGANISTWVYSSPGRHEGQEPFLQWLMLLSNESALPHVHTVSYGDDEDSLSSAYIQRVNTELMKAAARGLTLLFASGDSGAGCWSVSGRHQFRPTFPASSPYVTTVGGTSFQEPFLITNEIVDYISGGGFSNVFPRPSYQEEAVTKFLSSSPHLPPSSYFNASGRAYPDVAALSDGYWVVSNRVPIPWVSGTSASTPVFGGILSLINEHRILSGRPPLGFLNPRLYQQHGAGLFDVTRGCHESCLDEEVEGQGFCSGPGWDPVTGWGTPNFPALLKTLLNP
B1: in data set [1], the “percent of Cy3-fAβ degraded in microglia at 12.5 nM CLN2 (against mannose-6-phosphate control)” value is reported as “insignificant (2%) degradation at 12.5 nM”, the “percent of Cy3-fAβ degraded in microglia at 25 nM CLN2 (against mannose-6-phosphate control)” value is given as 19% at 25 nM, the “percent of Cy3-fAβ degraded in microglia at 50 nM CLN2 (against mannose-6-phosphate control)” value is 22% degradation at 50 nM CLN2 and the “percent of Cy3-fAβ degraded in microglia at 100 nM CLN2 (against mannose-6-phosphate control)” value is given as -30% degradation of the Cy3-fAβ when 100 nM of CLN2 was added to microglia. This molecule also yielded an EC50 of M6P inhibitable uptake into rat cerebellar granule neurons (intracellular TPP1 activity) in data set [2] of 6 to 8 nM.

These data come from patent US20110166074A1.
